In US20220213181A1 (Novartis, published 2022):
“And” between values parts separate entries of the source, which are not always exact repeats. Equal entries are not always repeated.

Legend:
[1] = molecular target: T1, Human ANGPTL3(17-460)-FLAG-His-Avi (human, UniProt Q9Y5C1 17-460, biotin on the C-terminal Avi tag (BirA)); test: Octet (ForteBio) kinetics; average KD of the runs; no binding at 25 nM
T1 construct: also called full length human ANGPTL3; hANGPTL3
T1 sequence: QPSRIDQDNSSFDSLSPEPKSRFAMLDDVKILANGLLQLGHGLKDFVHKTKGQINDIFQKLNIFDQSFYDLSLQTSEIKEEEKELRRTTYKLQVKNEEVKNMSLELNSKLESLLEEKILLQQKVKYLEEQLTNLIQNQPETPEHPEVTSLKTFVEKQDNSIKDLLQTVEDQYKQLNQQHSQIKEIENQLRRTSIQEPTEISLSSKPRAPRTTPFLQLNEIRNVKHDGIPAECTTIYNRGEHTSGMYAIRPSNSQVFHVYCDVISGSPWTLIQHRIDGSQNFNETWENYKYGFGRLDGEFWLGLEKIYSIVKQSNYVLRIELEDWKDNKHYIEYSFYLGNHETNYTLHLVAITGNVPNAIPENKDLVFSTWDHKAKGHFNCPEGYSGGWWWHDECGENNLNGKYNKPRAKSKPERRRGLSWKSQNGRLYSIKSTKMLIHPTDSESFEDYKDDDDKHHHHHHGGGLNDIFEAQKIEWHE

[2] = molecular target: T2, Human ANGPTL4(26-406)-FLAG-His6-Avi (human, UniProt Q9BY76 24-406, biotin on the C-terminal Avi tag (BirA) where the protein is immobilised); test: Octet (ForteBio) kinetics, biotinylated antigen on streptavidin sensor, IgG in solution
T2 construct: the text calls it 20 amino acids), then QP, ANGPTL4 26-406 and FLAG-His6-Avi; the signal peptide is left out here; also called full length human ANGPTL4; hANGPTL4
T2 sequence: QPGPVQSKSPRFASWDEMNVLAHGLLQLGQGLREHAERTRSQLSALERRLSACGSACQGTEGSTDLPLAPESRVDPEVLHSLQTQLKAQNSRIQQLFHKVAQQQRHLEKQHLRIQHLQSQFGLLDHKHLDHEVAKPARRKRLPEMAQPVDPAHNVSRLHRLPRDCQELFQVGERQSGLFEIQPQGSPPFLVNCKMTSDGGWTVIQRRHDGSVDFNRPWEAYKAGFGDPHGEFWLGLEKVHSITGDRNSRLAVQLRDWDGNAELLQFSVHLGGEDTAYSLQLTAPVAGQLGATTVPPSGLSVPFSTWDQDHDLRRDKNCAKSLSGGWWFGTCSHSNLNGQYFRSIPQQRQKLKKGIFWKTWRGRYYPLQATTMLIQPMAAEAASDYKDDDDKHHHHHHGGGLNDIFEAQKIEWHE

[3] = molecular target: T3, Cynomolgus monkey ANGPTL4(26-161)-FLAG-His6-Avi (cynomolgus monkey, biotin on the C-terminal Avi tag (BirA) where the protein is immobilised); test: as above
T3 construct: also called Cyno ANGPTL4 (26-161)
T3 chain: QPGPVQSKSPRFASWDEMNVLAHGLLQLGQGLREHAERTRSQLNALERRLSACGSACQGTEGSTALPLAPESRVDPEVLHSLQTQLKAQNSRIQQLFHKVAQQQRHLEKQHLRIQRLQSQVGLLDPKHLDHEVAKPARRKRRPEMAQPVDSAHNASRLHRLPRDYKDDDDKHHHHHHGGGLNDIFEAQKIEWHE

[4] = molecular target: T4, Rat ANGPTL4(24-405)-FLAG-His6-Avi (rat, UniProt Q6TMA8 24-405, biotin on the C-terminal Avi tag (BirA) where the protein is immobilised); test: as above
T4 sequence: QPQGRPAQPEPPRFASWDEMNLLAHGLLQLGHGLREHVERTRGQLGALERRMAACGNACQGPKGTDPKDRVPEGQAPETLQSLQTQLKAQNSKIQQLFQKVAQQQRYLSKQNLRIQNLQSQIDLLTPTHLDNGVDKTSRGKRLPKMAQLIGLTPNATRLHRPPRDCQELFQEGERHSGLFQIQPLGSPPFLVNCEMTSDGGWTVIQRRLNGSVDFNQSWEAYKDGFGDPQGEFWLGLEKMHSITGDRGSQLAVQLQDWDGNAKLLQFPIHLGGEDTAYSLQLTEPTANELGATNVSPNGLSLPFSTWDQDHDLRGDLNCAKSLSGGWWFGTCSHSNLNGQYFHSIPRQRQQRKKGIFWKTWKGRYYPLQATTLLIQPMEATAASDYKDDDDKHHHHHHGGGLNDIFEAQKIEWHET

[5] = molecular target: T4, Rat ANGPTL4(24-405)-FLAG-His6-Avi; test: Octet (ForteBio) kinetics, biotinylated antigen on streptavidin sensor, IgG in solution; Octet kinetics, rat ANGPTL4 on the sensor, antibody up to 25 nM; run 2
[6] = molecular target: T5, Mouse ANGPTL4(26-410)-FLAG-His6-Avi (mouse, UniProt Q9Z1P8 24-410, biotin on the C-terminal Avi tag (BirA) where the protein is immobilised); test: Octet (ForteBio) kinetics, biotinylated antigen on streptavidin sensor, IgG in solution; Octet kinetics, mouse ANGPTL4 on the sensor, antibody up to 25 nM; run 2
T5 sequence: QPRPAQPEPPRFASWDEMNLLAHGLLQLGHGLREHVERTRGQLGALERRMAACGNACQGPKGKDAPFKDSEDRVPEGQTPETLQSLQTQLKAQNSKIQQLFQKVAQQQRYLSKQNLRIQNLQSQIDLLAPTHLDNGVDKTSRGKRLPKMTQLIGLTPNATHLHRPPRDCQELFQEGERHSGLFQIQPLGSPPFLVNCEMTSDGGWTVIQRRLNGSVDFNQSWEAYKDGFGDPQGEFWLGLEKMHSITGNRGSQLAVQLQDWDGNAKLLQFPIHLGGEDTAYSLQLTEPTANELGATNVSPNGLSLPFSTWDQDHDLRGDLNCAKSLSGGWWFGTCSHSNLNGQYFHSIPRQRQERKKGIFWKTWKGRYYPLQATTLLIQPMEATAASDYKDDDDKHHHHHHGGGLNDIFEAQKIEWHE

Kd [1]: > 6 nM | Kd [2]: 0.014 nM and 0.017 nM and ≤ 0.012 nM and 0.01 nM | koff [2]: 5.9e-06 s⁻¹ and 6e-06 s⁻¹ and 7e-06 s⁻¹ | kon [2]: 410000 M⁻¹ s⁻¹ and 360000 M⁻¹ s⁻¹ and 430000 M⁻¹ s⁻¹ and 680000 M⁻¹ s⁻¹ | koff [3]: 6.4e-06 s⁻¹ and 1.7e-05 s⁻¹ | kon [3]: 270000 M⁻¹ s⁻¹ and 190000 M⁻¹ s⁻¹ | Kd [4]: 6.03 nM | koff [5]: 0.0011 s⁻¹ | kon [5]: 170000 M⁻¹ s⁻¹ | koff [6]: 0.0018 s⁻¹ | kon [6]: 430000 M⁻¹ s⁻¹
B1: NEG276-LALA (antibody, human IgG1, kappa, L234A L235A)
heavy: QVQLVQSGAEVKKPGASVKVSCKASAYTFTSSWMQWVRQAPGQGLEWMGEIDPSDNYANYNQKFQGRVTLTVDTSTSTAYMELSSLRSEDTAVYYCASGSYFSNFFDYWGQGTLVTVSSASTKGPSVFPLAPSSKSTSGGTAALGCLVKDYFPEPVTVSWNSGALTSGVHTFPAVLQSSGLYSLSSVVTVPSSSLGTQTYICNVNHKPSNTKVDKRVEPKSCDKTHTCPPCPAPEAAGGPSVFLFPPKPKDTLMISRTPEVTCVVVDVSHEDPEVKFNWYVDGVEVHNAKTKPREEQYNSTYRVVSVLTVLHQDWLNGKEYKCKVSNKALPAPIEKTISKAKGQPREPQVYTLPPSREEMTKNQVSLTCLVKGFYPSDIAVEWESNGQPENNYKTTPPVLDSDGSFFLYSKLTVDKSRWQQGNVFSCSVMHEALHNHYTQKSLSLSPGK
light: EIVMTQSPATLSVSPGERATLSCKASQDIGSNLNWLQQKPGQAPRRLIYAVSNRGPGIPARFSGSRSGSEYTLTISSLQSEDFAVYYCLQYASSPWTFGQGTKVEIKRTVAAPSVFIFPPSDEQLKSGTASVVCLLNNFYPREAKVQWKVDNALQSGNSQESVTEQDSKDSTYSLSSTLTLSKADYEKHKVYACEVTHQGLSSPVTKSFNRGEC
